The record followed here is paper PMC2935290.

What all share (assay): radioligand binding
In assay [1] the target is HLA-DPB1*0501 (human (endogenous in HO301)).
In assay [2] the target is HLA-DPB1*0201 (human (endogenous in JY)).
Assay [3] concerns the target HLA-DPB1*0101 (human (endogenous in VAVY)).

With EKKYFAATQFWPLAA [… E11W], the other in assay [1] is 0.13.
Turning to EKKYFAATFFEPLAA [… Q9F], the other in assay [1] was determined as 13.
As for EKKQFAATQFEPLAA [… Y4Q], the other in assay [2] turned out to be 1.8; in assay [3], 1.
On to EKKYFAAYQFEPLAA [… T8Y], for which the other in assay [1] stood at 0.2.
Same read-out and setting: next, EKKYFKATQFEPLAA [… A6K]: 1.8.
Consider EKKYFYATQFEPLAA [… A6Y], for which the other in assay [1] was determined as 2.1; in assay [3] it was 6.
Consider EKKYFFATQFEPLAA [… A6F], for which, in assay [3], the other was 2.1.
The same measure, in the same setting: next, EKKYFAATHFEPLAA [… Q9H]: 1.
As for EKKYFAATPFEPLAA [… Q9P], the other in assay [3] was determined as 1.
Take EKKYFAATRFEPLAA [… Q9R]: the other in assay [3] came out at 1.8.
In assay [3], EKKYFPATQFEPLAA [… A6P] displayed an other of 0.18.
EKKYFAATQFNPLAA [… E11N] had an other in assay [1] of 0.36.
The molecule EKKYFIATQFEPLAA [… A6I] gave an other in assay [2] of 0.89.
Molecule EKKYFAATKFEPLAA [… Q9K] gave an other in assay [1] of 0.95.
EKKYFAATQFLPLAA [… E11L] yielded an other in assay [2] of 2.
Take EKKYFAATQFRPLAA [… E11R]: in assay [1], the other is 1.
On to EKKAFAATQFEPLAA [… Y4A], for which the other stood at 0.2 in assay [2] and 0.066 in assay [3].
As to EKKYFAADQFEPLAA [… T8D], in assay [3], the other was 0.2.
For EKKYFAATSFEPLAA [… Q9S], the other in assay [2] was determined as 2.
EKKYFAATVFEPLAA [… Q9V] showed an other in assay [1] of 3.4.
EKKYFDATQFEPLAA [… A6D]: the other in assay [2] came to 0.36; in assay [1] it was 0.13.
As for EKKYFAATQFVPLAA [… E11V], the other in assay [1] amounted to 2.
EKKYFEATQFEPLAA [… A6E]: the other in assay [2] was determined as 0.41.
In turn, EKKYFCATQFEPLAA [… A6C] came in with an other in assay [2] of 0.38.
As to EKKYFAATQFQPLAA [… E11Q], in assay [1], the other was determined as 1.
As for EKKYFAATQFIPLAA [… E11I], the other in assay [2] was 1.8; in assay [1], 2.1.
For the molecule EKKYFTATQFEPLAA [… A6T], the other turned out to be 1 in assay [2] and 2.1 in assay [3].
The molecule EKKYFAATCFEPLAA [… Q9C] displayed an other in assay [3] of 1.8.
Regarding EKKDFAATQFEPLAA [… Y4D], in assay [3], the other was determined as 2.
For the molecule EKKYFAATAFEPLAA [… Q9A], in assay [1], the other was determined as 1.
For EKKYFAAWQFEPLAA [… T8W], the other in assay [1] worked out at 0.13.
Molecule EKKYFAANQFEPLAA [… T8N] displayed an other in assay [3] of 3.4.
